Laboratory results reported in US20220177602A1 (MacroGenics, published 2022).

Legend:
[1] = target: T1, soluble recombinant human FcγRIIIa (human, UniProt P08637 17-208, limits assumed); experiment: indirect competitive ELISA, FcγRIIIa coated, competitor MGAH22-Bt, against margetuximab Reference Standard; stored 2-8° C., 1 month
T1 construct: Coated on the ELISA plate; also called CD16a; Fcγ Receptor subtype IIIa
Protocol: (§1) Margetuximab contains point mutations in the Fc-domain that enhance the interaction of the margetuximab constant region with some human Fc receptors, in particular the Fcγ Receptor subtype […] (FcγRIIIa), also referred to as CD16a. The potency of the Fc domain is assessed with an indirect competitive enzyme linked immunosorbent assay (ELISA) essentially as described. The quantification of the binding of margetuximab test article Fc to the FcγRIIIa is measured by its ability to compete against the binding of a biotin-labeled margetuximab competitor sample (MGAH22-Bt). To perform the assay, soluble recombinant human FcγRIIIa is coated to the solid phase (96-well assay plates). A dilution series of margetuximab Test Article (TA) in a constant concentration of MGAH22-Bt is allowed to bind to the immobilized FcγRIIIa. A dilution-series of the test article and of the margetuximab Reference Standard is analyzed in this manner on the same assay plate, in order to generate dose-response curves for both the test article and the margetuximab Reference Standard. […] Oxidation of the added AP substrate by the conjugated AP yields a color product that can be measured at 405±10 nm. The intensity (absorbance) of the color signal is measured using a microplate reader. […] Data are fitted to a constrained four-parameter logistic model to describe absorbance signal as a function of margetuximab concentration. […]

[2] = target: T1, soluble recombinant human FcγRIIIa; experiment: indirect competitive ELISA, FcγRIIIa coated, competitor MGAH22-Bt, against margetuximab Reference Standard; stored 2-8° C., 0 months
Protocol: as §1

[3] = target: T1, soluble recombinant human FcγRIIIa; experiment: indirect competitive ELISA, FcγRIIIa coated, competitor MGAH22-Bt, against margetuximab Reference Standard; stored 2-8° C., 3 months
Protocol: as §1

[4] = target: T1, soluble recombinant human FcγRIIIa; experiment: indirect competitive ELISA, FcγRIIIa coated, competitor MGAH22-Bt, against margetuximab Reference Standard; stored 2-8° C., 6 months
Protocol: as §1

[5] = target: T1, soluble recombinant human FcγRIIIa; experiment: indirect competitive ELISA, FcγRIIIa coated, competitor MGAH22-Bt, against margetuximab Reference Standard; stored 2-8° C., 9 months
Protocol: as §1

[6] = target: T1, soluble recombinant human FcγRIIIa; experiment: indirect competitive ELISA, FcγRIIIa coated, competitor MGAH22-Bt, against margetuximab Reference Standard; stored 2-8° C., 12 months
Protocol: as §1

[7] = target: T1, soluble recombinant human FcγRIIIa; experiment: indirect competitive ELISA, FcγRIIIa coated, competitor MGAH22-Bt, against margetuximab Reference Standard; stored 2-8° C., 18 months
Protocol: as §1

[8] = target: T1, soluble recombinant human FcγRIIIa; experiment: indirect competitive ELISA, FcγRIIIa coated, competitor MGAH22-Bt, against margetuximab Reference Standard; stored 2-8° C., 24 months
Protocol: as §1

[9] = target: T1, soluble recombinant human FcγRIIIa; experiment: indirect competitive ELISA, FcγRIIIa coated, competitor MGAH22-Bt, against margetuximab Reference Standard; stored 2-8° C., 30 months
Protocol: as §1

[10] = target: T1, soluble recombinant human FcγRIIIa; experiment: indirect competitive ELISA, FcγRIIIa coated, competitor MGAH22-Bt, against margetuximab Reference Standard; stored 2-8° C., 33 months
Protocol: as §1

[11] = target: T1, soluble recombinant human FcγRIIIa; experiment: indirect competitive ELISA, FcγRIIIa coated, competitor MGAH22-Bt, against margetuximab Reference Standard; stored 2-8° C., 36 months
Protocol: as §1

[12] = target: T1, soluble recombinant human FcγRIIIa; experiment: indirect competitive ELISA, FcγRIIIa coated, competitor MGAH22-Bt, against margetuximab Reference Standard; stored 2-8° C., 48 months
Protocol: as §1

[13] = target: T1, soluble recombinant human FcγRIIIa; experiment: indirect competitive ELISA, FcγRIIIa coated, competitor MGAH22-Bt, against margetuximab Reference Standard; stored 25 ± 2° C., column head 1 month
Protocol: as §1

[14] = target: T1, soluble recombinant human FcγRIIIa; experiment: indirect competitive ELISA, FcγRIIIa coated, competitor MGAH22-Bt, against margetuximab Reference Standard; stored 25 ± 2° C., column head 0 months
Protocol: as §1

[15] = target: T1, soluble recombinant human FcγRIIIa; experiment: indirect competitive ELISA, FcγRIIIa coated, competitor MGAH22-Bt, against margetuximab Reference Standard; stored 25 ± 2° C., column head 2 months
Protocol: as §1

[16] = target: T1, soluble recombinant human FcγRIIIa; experiment: indirect competitive ELISA, FcγRIIIa coated, competitor MGAH22-Bt, against margetuximab Reference Standard; stored 25 ± 2° C., column head 3 months
Protocol: as §1

[17] = target: T1, soluble recombinant human FcγRIIIa; experiment: indirect competitive ELISA, FcγRIIIa coated, competitor MGAH22-Bt, against margetuximab Reference Standard; stored 25 ± 2° C., column head 4 months
Protocol: as §1

[18] = target: T1, soluble recombinant human FcγRIIIa; experiment: indirect competitive ELISA, FcγRIIIa coated, competitor MGAH22-Bt, against margetuximab Reference Standard; stored 25 ± 2° C., column head 5 months
Protocol: as §1

[19] = target: T1, soluble recombinant human FcγRIIIa; experiment: indirect competitive ELISA, FcγRIIIa coated, competitor MGAH22-Bt, against margetuximab Reference Standard; stored 25 ± 2° C., column head 6 months
Protocol: as §1

T1 sequence (P08637 17-208 limits assumed): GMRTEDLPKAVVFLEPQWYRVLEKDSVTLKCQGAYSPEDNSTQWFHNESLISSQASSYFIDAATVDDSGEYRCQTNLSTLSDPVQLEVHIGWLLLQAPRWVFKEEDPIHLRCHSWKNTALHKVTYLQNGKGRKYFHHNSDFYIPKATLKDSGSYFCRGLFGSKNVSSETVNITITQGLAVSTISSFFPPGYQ

relative potency by FcγRIIIa Binding ELISA (100% x IC50 Reference Standard/IC50 Test Article) [1]: 81%
relative potency by FcγRIIIa Binding ELISA (100% x IC50 Reference Standard/IC50 Test Article) [2]: 76%
relative potency by FcγRIIIa Binding ELISA (100% x IC50 Reference Standard/IC50 Test Article) [3]: 92%
relative potency by FcγRIIIa Binding ELISA (100% x IC50 Reference Standard/IC50 Test Article) [4]: 103%
relative potency by FcγRIIIa Binding ELISA (100% x IC50 Reference Standard/IC50 Test Article) [5]: 106%
relative potency by FcγRIIIa Binding ELISA (100% x IC50 Reference Standard/IC50 Test Article) [6]: 110%
relative potency by FcγRIIIa Binding ELISA (100% x IC50 Reference Standard/IC50 Test Article) [7]: 105%
relative potency by FcγRIIIa Binding ELISA (100% x IC50 Reference Standard/IC50 Test Article) [8]: 100%
relative potency by FcγRIIIa Binding ELISA (100% x IC50 Reference Standard/IC50 Test Article) [9]: 103%
relative potency by FcγRIIIa Binding ELISA (100% x IC50 Reference Standard/IC50 Test Article) [10]: 107%
relative potency by FcγRIIIa Binding ELISA (100% x IC50 Reference Standard/IC50 Test Article) [11]: 107%
relative potency by FcγRIIIa Binding ELISA (100% x IC50 Reference Standard/IC50 Test Article) [12]: 101%
relative potency by FcγRIIIa Binding ELISA (100% x IC50 Reference Standard/IC50 Test Article) [13]: 82%
relative potency by FcγRIIIa Binding ELISA (100% x IC50 Reference Standard/IC50 Test Article) [14]: 76%
relative potency by FcγRIIIa Binding ELISA (100% x IC50 Reference Standard/IC50 Test Article) [15]: 100%
relative potency by FcγRIIIa Binding ELISA (100% x IC50 Reference Standard/IC50 Test Article) [16]: 99%
relative potency by FcγRIIIa Binding ELISA (100% x IC50 Reference Standard/IC50 Test Article) [17]: 104%
relative potency by FcγRIIIa Binding ELISA (100% x IC50 Reference Standard/IC50 Test Article) [18]: 76%
relative potency by FcγRIIIa Binding ELISA (100% x IC50 Reference Standard/IC50 Test Article) [19]: 82%
B1: margetuximab (antibody, human IgG1, kappa)
heavy: QVQLQQSGPELVKPGASLKLSCTASGFNIKDTYIHWVKQRPEQGLEWIGRIYPTNGYTRYDPKFQDKATITADTSSNTAYLQVSRLTSEDTAVYYCSRWGGDGFYAMDYWGQGASVTVSSASTKGPSVFPLAPSSKSTSGGTAALGCLVKDYFPEPVTVSWNSGALTSGVHTFPAVLQSSGLYSLSSVVTVPSSSLGTQTYICNVNHKPSNTKVDKRVEPKSCDKTHTCPPCPAPELVGGPSVFLLPPKPKDTLMISRTPEVTCVVVDVSHEDPEVKFNWYVDGVEVHNAKTKPPEEQYNSTLRVVSVLTVLHQDWLNGKEYKCKVSNKALPAPIEKTISKAKGQPREPQVYTLPPSRDELTKNQVSLTCLVKGFYPSDIAVEWESNGQPENNYKTTPLVLDSDGSFFLYSKLTVDKSRWQQGNVFSCSVMHEALHNHYTQKSLSLSPGK
light: DIVMTQSHKFMSTSVGDRVSITCKASQDVNTAVAWYQQKPGHSPKLLIYSASFRYTGVPDRFTGSRSGTDFTFTISSVQAEDLAVYYCQQHYTTPPTFGGGTKVEIKRTVAAPSVFIFPPSDEQLKSGTASVVCLLNNFYPREAKVQWKVDNALQSGNSQESVTEQDSKDSTYSLSSTLTLSKADYEKHKVYACEVTHQGLSSPVTKSFNRGEC
notes: Chimeric Fc-optimized IgG1/kappa monoclonal antibody; Tested as drug product Lot A in the F1 formulation after storage; also called MGAH22; Margetuximab DP Lot A; copies: 2 + 2
